Assay results: US10894811B2, “Peptide inhibitors of calcium channels” (The University of North Carolina at Chapel Hill, priority 2016, dated 2021)
Entries after “also recorded” stand apart in the source; their conditions may differ.

Experiments:
tracheal rings = experiment: Myography of murine tracheal rings (ex vivo contraction); design: species or system mouse; conditions: pretreatment with recombinant SPLUNC1 protein for 1 h prior to agonist addition
Procedure: Myography of Murine Tracheal Rings: Tracheas were excised from 8-week old SPLUNC1 WT and KO mice. After removing excessive connecting tissue, the trachea was cut into ˜4-mm rings, mounted on a DMT 620M myography apparatus and allowed to rest in modified Ringer's solution (119 mM NaCl, 4.7 mM KCl, 1.17 mM MgSO4, 1.18 mM KH2PO4, 2.5 mM CaCl2, 25 mM NaHCO3, 0.027 mM EDTA, 5.5 mM glucose) with continuous oxygenation (95% O2/5% CO2) at 37° C. for 20 min with no applied tension. Optimal passive tension (1 mN) was then applied to the rings. The baseline force was then recorded after stable tension was achieved. The induced contractile force of each ring was assessed by measuring contraction stimulated by 60 mM KCl or […] Ach (unless indicated otherwise), respectively.

Human ASMCs = experiment: Cell contraction assay (collagen gel); format: cell-based; conditions: pre-incubation with recombinant SPLUNC1; with or without Ach; 60 min
Procedure: Cell contraction assay: The cell contraction assay was performed using a standard commercially available kit (Cell Biolabs). Human ASMCs were harvested and re-suspended in DMEM, two parts of cells were mixed with eight parts of collagen gel lattice mixture and plated for 1 h at 37° C. After the gel solidified, 1 ml of medium was added and incubated for 48 h. Next the gels were released from the sides of wells, and the images were taken using a ChemiDoc™ MP imager (BioRad) at 0 and 1 h after adding indicated reagents. The changes of collagen gel surface areas were analyzed using ImageJ software and normalized to areas of gels at 0 time point.

Orai1 [1] = target: T1, Orai1 (Homo sapiens, UniProt Q96D31); experiment: Surface biotinylation / immunoblot of plasma membrane Orai1; format: cell-based; conditions: ASMC, after 4 h of SPLUNC1 exposure
Procedure: Surface biotinylation: hASMCs were treated with or without SPLUNC1 for 4 h. Cells were then washed with prechilled PBS^++ (phosphate buffered saline supplemented with 1 mM CaCl2 and 1 mM MgCl2), and then labeled with 0.5 mg/ml sulfo-NHS-biotin (Thermo) in borate buffer (85 mM NaCl, 4 mM KCl, 15 mM Na2B4O7, pH 9.0) while tumbling gently for 30 min on ice. hASMCs were incubated in PBS^++ buffer supplemented with 10% FBS for 20 min at 4° C. to quench free biotin. Cells were washed again three times with chilled PBS^++ and proteins were extracted as previously using lysis buffer (0.4% sodium deoxycholate, 1% NP-40, 50 mM EGTA, 10 mM Tris-Cl, pH 7.4) supplemented with 1×PIC. Total inputs were taken from whole cell samples representing 4% of total protein. Solubilized proteins were incubated with 100 μl of neutravidin beads (Pierce) overnight while rotating at 4° C. Samples were washed three times with lysis buffer. Bead-bound proteins were then eluted and SDS-polyacrylamide gels, and subjected to immunoblot analysis.

ASMC plasma membranes = experiment: SPLUNC1 binding to ASMCs after Orai1 shRNA (surface biotinylation, fluorescent SPLUNC1 binding assay); design: species or system human; conditions: Orai1 shRNA knockdown vs scrambled control, 72 h post transfection
Procedure: Short hairpin RNA (shRNA) plasmid against Orai1 and scrambled control shRNA plasmid were purchased from Sigma Aldrich and published previously (Sheridan et al., J. Biol. Chem. 288:33509 (2013)). Transfections of all plasmid DNA and shRNA were performed using Lipofectamine 2000 reagent (Life Technologies) according to the manufacturer's instructions.
Fluorescent SPLUNC1 binding assay: Human ASMCs were transfected with scrambled control shRNA and Orai1 shRNA respectively. 72 h post transfection, cells were treated with or without SPLUNC1-DyLight 633 for 1 h, then washed for 5 times with ice-cold Ringer's solution. ASMC-bounded SPLUNC1-Dylight 633 was detected by fluorescent plate reader (Tecan). Cells were also stained with calcein AM (Life Technologies) as cell number control. Relative fluorescent intensity was calculated by normalizing fluorescent intensity at 658 nm to 526 nm.
Surface biotinylation: hASMCs were treated with or without SPLUNC1 for 4 h. Cells were then washed with prechilled PBS^++ (phosphate buffered saline supplemented with 1 mM CaCl2 and 1 mM MgCl2), and then labeled with 0.5 mg/ml sulfo-NHS-biotin (Thermo) in borate buffer (85 mM NaCl, 4 mM KCl, 15 mM Na2B4O7, pH 9.0) while tumbling gently for 30 min on ice. hASMCs were incubated in PBS^++ buffer supplemented with 10% FBS for 20 min at 4° C. to quench free biotin. […]

Orai1 [2] = target: T1, Orai1; experiment: Surface labeling and ground state depletion super resolution microscopy; format: cell-based; design: expressed in transfected cells; conditions: ASMC plasma membranes, after 1 h incubation
Procedure: Surface labeling and super resolution microscopy: Human ASMs were grown on 22×22 mm^2 glass coverslips and transfected with the HA-Orai1. 24 h after transfection, cells were fixed with 4% paraformaldehyde (PFA) in PBS, followed by surface labeling with mouse anti-HA antibody (BioLegend) and Alexa 488 goat anti mouse antibody (Life Technologies) at 4° C. After washing with ice cold PBS for five times, cells were incubated with 5 μM SPLUNC1-DyLight 594 for 1 h at 4° C. prior to imaging.
Prior to mounting, 90 μl of oxygen depleting medium, β-Mercaptoethylamine (MEA) was added to the cavity of depression slides. Coverslips were then mounted on the depression slides and sealed with twinsil (Picodent). Super resolution images were captured with a commercial LEICA GSD super-resolution microscope. Ground state depletion (GSD) was performed using 488 nm and 642 nm m solid-state lasers. Samples were excited using 488 nm and 642 nm lasers and sample acquisition was increased with back-pumping using the 405 nm laser as per the manufacturer's instructions. The microscope was fitted with a 160× oil-immersion objective lens.

T1 sequence (Q96D31 whole entry): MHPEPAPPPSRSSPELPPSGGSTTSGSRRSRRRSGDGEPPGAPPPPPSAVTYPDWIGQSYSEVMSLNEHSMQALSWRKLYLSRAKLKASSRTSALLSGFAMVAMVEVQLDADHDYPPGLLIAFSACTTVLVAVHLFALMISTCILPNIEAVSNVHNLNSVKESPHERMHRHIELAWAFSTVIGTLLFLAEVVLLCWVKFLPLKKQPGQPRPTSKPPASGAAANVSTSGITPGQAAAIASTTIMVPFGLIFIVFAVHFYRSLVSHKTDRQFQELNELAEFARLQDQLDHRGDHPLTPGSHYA

B1: SPLUNC1: Short palate, lung and nasal epithelium clone 1, recombinant full length protein (protein, listed as Homo sapiens)
chain: MFQTGGLIVFYGLLAQTMAQFGGLPVPLDQTLPLNVNPALPLSPTGLAGSLTNALSNGLLSGGLLGILENLPLLDILKPGGGTSGGLLGGLLGKVTSVIPGLNNIIDIKVTDPQLLELGLVQSPDGHRLYVTIPLGIKLQVNTPLVGASLLRLAVKLDITAEILAVRDKQERIHLVLGDCTHSPGSLQISLLDGLGPLPIQGLLDSLTGILNKVLPELVQGNVCPLVNEVLRGLDITLVHDIVNMLIHGLQFVIKV
- contraction (contractile force) of tracheal rings (tracheal rings): suppressed contraction
- ASMC contraction in collagen matrix (decrease in gel surface area) (Human ASMCs): significantly reduced; also recorded: decreases airway smooth muscle (ASM) contractility
- decrease of plasma membrane Orai1 levels (Orai1 [1]): ~50%
- SPLUNC1 binding to ASMC plasma membranes (ASMC plasma membranes): decreased; also recorded: decreases SPLUNC1 binding to the ASMC membrane; also recorded: decreases fluorescent SPLUNC1 binding to ASMCs
- co-localization of SPLUNC1 and Orai1 (Orai1 [2]): co-localize in ASMC plasma membranes
